Data reported in article PMC5724361 (ACS chemical biology, 2017).

Key:
[1] = molecular target: T1, Aβ1–40 (Homo sapiens, UniProt P05067); assay: IM-MS analysis of complex formation with Aβ1–40; format: binding; details: alanine substituted variants of leucine enkephalin
[2] = molecular target: T1, Aβ1–40; details: cited from earlier work
[3] = system: Aβ; details: incubated in excess with leucine enkephalin, compared with control; cited from earlier work

T1 sequence (P05067 672-711 limits assumed): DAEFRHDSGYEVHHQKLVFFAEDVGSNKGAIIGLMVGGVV

| Substance | Complex formation with Aβ1–40 (IM-MS signal) [1] | Stoichiometric ratios of Aβ:leucine enkephalin complexes [2] | Aβ fibrillation (TEM and gel) [3] |
| --- | --- | --- | --- |
| YGGAL: alanine substituted variant of leucine enkephalin (Leu-enkephalin; UniProt P01210 230-234, looked up, variant F4A) | no measureable complex signals | – | – |
| YGGFA: alanine substituted variant of leucine enkephalin (Leu-enkephalin; UniProt P01210 230-234, looked up, variant L5A) | no measureable complex signals | – | – |
| Leucine enkephalin acetate hydrate | – | 1:1 to 1:3, and from 2:1 to 2:3 | decreased Aβ fibrillation |
| AGGFL: alanine substituted variant of leucine enkephalin (Leu-enkephalin; UniProt P01210 230-234, looked up, variant Y1A) | complexes formed | – | – |
| YGAFL: alanine substituted variant of leucine enkephalin (Leu-enkephalin; UniProt P01210 230-234, looked up, variant G3A) | complexes formed | – | – |
